This note sets out measurements from PMC10703199.

Assay [1] concerns the target sperm immobilization factor (SIF) from Staphylococcus aureus (Staphylococcus aureus).
Assay [2] deals with SIF-binding receptor from Proteus mirabilis (PM-SBR) (Proteus mirabilis). The assay is described as follows: ITC; SIF (500 μg/ml) in the syringe, 10 μl injections into PM-SBR (200 μg/ml) in the vial, PBS as reference, 37°C, stirring 200 rpm, 800 s between injections; micro reaction calorimeter.

Consider “SIF-binding receptor from Proteus mirabilis (PM-SBR) (natural protein)”, for which, in assay [1], the motility of mouse spermatozoa exposed for 20 seconds to SIF (70 μg) pre-incubated with PM-SBR (10-200 μg): amount of PM-SBR that alleviated the immobilization came to 130 µg and the viability of mouse spermatozoa (eosin staining) with SIF (150 μg) pre-incubated with PM-SBR (50-300 μg): minimum effective concentration (MEC) of PM-SBR reducing sperm mortality caused by SIF was 270 µg.
For the substance “sperm immobilization factor (SIF) from Staphylococcus aureus (natural protein)”, in assay [2], the Ka turned out to be 1220 M⁻¹ and the dH stood at 2.29 kcal/mol.
